According to patent publication US20250257126A1 (CAMBRIDGE ENTERPRISE, published 2025):

Assays:
[1] = target: T1, human LGR4 transgene (human, UniProt Q9BXB1 25-951); experiment: western blot of lysates of HEK293T cells expressing the LGR transgenes
T1 construct: whole, on cells; Overexpressed in HEK293T cells with N-terminal HA tag, V2 receptor tail and eGFP; also tested as lysate; also called hLGR4; LGR4-eGFP

[2] = target: T2, murine LGR4 transgene (mouse, UniProt A2ARI4 25-951); experiment: as above
T2 construct: whole, on cells; Overexpressed in HEK293T cells with N-terminal HA tag, V2 receptor tail and eGFP; also tested as lysate; also called mLGR4

[3] = target: T3, human LGR6 transgene (human, UniProt Q9HBX8 25-967); experiment: as above
T3 construct: whole, on cells; Overexpressed in HEK293T cells with N-terminal HA tag, V2 receptor tail and eGFP; also tested as lysate; also called hLGR6; LGR6-eGFP
T3 sequence (looked up): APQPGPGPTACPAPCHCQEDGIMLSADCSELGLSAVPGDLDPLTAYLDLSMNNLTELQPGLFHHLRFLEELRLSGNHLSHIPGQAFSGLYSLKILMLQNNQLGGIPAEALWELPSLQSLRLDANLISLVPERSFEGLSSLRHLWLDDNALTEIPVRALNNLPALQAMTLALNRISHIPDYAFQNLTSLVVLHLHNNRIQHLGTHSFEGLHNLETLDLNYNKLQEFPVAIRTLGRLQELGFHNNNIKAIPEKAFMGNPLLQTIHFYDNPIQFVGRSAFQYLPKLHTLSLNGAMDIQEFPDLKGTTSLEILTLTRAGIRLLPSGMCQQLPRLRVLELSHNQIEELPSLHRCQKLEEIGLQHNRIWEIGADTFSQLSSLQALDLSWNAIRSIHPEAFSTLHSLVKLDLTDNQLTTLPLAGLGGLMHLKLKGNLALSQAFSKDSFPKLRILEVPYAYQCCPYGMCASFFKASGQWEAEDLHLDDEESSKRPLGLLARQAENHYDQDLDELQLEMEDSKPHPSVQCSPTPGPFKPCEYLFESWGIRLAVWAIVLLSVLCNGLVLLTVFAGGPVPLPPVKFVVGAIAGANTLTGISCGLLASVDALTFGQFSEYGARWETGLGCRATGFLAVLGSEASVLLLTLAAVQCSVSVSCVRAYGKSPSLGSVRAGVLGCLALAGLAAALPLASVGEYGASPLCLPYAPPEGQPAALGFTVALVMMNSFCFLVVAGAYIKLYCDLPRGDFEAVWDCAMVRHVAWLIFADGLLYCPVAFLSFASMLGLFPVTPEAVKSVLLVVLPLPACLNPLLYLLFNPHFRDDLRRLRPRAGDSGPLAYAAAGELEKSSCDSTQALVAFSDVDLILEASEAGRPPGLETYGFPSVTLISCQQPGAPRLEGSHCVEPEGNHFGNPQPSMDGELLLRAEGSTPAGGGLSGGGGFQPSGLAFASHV

[4] = target: T4, murine LGR6 transgene (mouse, UniProt Q3UVD5 23-967); experiment: as above
T4 construct: whole, on cells; also called mLGR6
T4 sequence (looked up): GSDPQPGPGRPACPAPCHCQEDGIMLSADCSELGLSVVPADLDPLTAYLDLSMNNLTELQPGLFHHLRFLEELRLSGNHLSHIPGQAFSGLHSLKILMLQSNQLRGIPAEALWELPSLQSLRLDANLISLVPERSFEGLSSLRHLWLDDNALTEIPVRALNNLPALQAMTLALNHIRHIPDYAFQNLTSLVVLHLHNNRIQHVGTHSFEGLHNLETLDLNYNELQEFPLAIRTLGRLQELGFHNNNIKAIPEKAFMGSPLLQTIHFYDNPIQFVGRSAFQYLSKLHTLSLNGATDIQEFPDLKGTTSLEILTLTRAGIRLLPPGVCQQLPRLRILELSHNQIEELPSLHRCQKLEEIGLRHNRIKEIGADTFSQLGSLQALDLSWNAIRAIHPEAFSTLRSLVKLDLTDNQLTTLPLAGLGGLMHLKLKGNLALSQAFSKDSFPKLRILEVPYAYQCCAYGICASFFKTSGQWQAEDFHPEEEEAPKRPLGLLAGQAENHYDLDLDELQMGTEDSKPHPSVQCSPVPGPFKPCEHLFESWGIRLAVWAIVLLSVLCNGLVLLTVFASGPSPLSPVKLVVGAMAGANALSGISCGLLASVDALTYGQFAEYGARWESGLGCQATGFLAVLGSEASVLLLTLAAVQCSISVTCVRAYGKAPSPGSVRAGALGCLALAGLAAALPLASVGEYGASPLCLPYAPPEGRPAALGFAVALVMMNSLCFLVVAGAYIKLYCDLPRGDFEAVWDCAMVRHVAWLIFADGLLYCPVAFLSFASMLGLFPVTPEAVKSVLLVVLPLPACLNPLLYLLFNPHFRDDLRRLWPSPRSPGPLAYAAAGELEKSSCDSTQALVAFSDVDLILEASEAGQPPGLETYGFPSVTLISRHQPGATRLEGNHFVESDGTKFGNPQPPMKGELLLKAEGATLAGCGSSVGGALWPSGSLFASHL

[5] = target: T5, RAD-displayed Fragment 1A of human LGR5 (human); experiment: bio-layer interferometry (Octet), captured RAD-displayed fragment
T5 construct: also called Frag1A
T5 sequence (O75473 22-37, looked up): GSSPRSGVLLRGCPTH

[6] = target: T5, RAD-displayed Fragment 1A of human LGR5; experiment: bio-layer interferometry (Octet), captured RAD-displayed fragment, 10 µM Fragment 1 peptide included

Binder	binding result [1]	binding result [2]	binding result [3]	binding result [4]	Kd [5] [nM]	Kd [6] [nM]
hybridoma clone 12 (antibody, V domains shown, Murine antibody; also called antibody 12) VH: EVQLQQSGPELVKPGASVKISCKASGYTFTDYYMNWVKQSHGKSLEWIGDINPNNGGTIYNQKFKGKATLTVDKSSSTAYMELRSLTSEDSAVYYCASGYLFDYWGPGTTLTVSS VL: not shown	no binding	no binding	no binding	no binding		
α-LGR5 variant 4 (antibody, human IgG1, kappa, V domains shown, Humanized antibody; also called α-LGR5v4; clone 2.4) VH: QVQLVQSGAEVKKPGASVKVSCKASGYTFTNYWMQWVRQAPGQGLEWIGEIDPSDSYTNYNQKFQGRVTLTVDTSTSTAYMELSSLRSEDTAVYYCARSLSGYVDYWGQGTTVTVSS VL: EIVMTQSPATLSLSPGERATLSCRASQDISNRLNWYQQKPGQAVRLLISYRSRRHTGIPARFSGSGSGTDYTLTISSLEPEDFAVYYCQQGNSLPPTFGGGTKLEIKR					2	
α-LGR5 clone 1 (antibody, mouse IgG1, kappa, V domains shown, Murine monoclonal antibody from hybridoma; also called hybridoma clone 1; antibody 1) VH: QVQLQQPGAELVKPGASVKLSCKASGYTFTSYWMQWVKQRPGQGLEWIGEIDPSDYYTNYNQKFKGKATLTVDTSSSTAYMQLSSLTSEDSAVYYCARSLSGYVDYWGQGTTLTVSS VL: DIQMTQSTSSLSASLGDRVTINCRASQDIRNRLNWYQQKPDGTVKLLISYRSRLQSGVPSRFSGSGSGTEYSLTISNLEQEDIATYFCQQGNTLPPTFGGGTKLEVRR	no binding	no binding	no binding	no binding		0.76
α-LGR5 clone 4 (antibody, mouse IgG2b, kappa, V domains shown, Murine monoclonal antibody from hybridoma; also called hybridoma clone 4; antibody 4) VH: QVQLQQPGAELVKPGASVKLSCKASGYTFTDYWMQWVKQRPGQGLEWIGEIDPSDSYTNYNQKFQGKATLTVDTSSSTAYIQLSSLTSDDSAVYYCARSLSGSVDYWGQGTTLTVSS VL: DIQMTQTTSSLSASLGDRVTISCRASQDISNRLNWYQQKPDGTVKLLISYRSRLQSGVPSRFSGSGSGTDYSLTITNLEQEDIATYFCQQGNTLPPTFGGGTKLEVRR	no binding	no binding	no binding	no binding		1.4
α-LGR5 clone 3 (antibody, mouse IgG1, kappa, V domains shown, Murine monoclonal antibody from hybridoma; also called hybridoma clone 3; antibody 3) VH: QVQLQQPGAELVKPGASVKLSCKASGYTFTSYWMQWVKQRPGQGLEWIGEIDPSDSYSNYNQKFKGKATLTVDTSSSTAYMQLSSLTSEDSAVYYCARSLSGYVDYWGQGTTLTVSS VL: DIQMTQTTSSLSASLGDRVTISCRASQDISNRLNWYQQKPDGTVKLLISYRSRLQSGVPSRFSGSGSGTDYSLTISNLEEEDIATYFCQQGNTLPPTFGGGTKLEVRR	no binding	no binding	no binding	no binding		1
